Reference: patent US20190202925A1 (OPI VI IP HOLDCO, published 2019)
Changes are numbered by the printed parent chain. Where two headings read alike, the source gives them in different places.

B1: chimeric SBT-004b (antibody, human IgG1, V domains shown)
VH: EVQLQQSGPEVGRPGSSVKISCKASGYTFTDYIMHWVKQSPGQGLEWIGWVDPEYGSTDYAEKFKKKATLTADTSSNTAYIQLSSLTSEDTATYFCARDDGSYSPFDYWGQGVMVTVSS
VL: NIVMTQSPKSMSMSVGERVTLTCKASENVVTYVSWYQQKPEQSPKLLIYGASNRYTGVPDRFTGSGSATDFTLTISSVQAEDLADYHCGQGYSYPYTFGGGTKLEIK
notes: Same heavy chain as chSBT-004 (human IgG1 Fc domain); also called chSBT-004b
B2: SBT-001 (antibody, V domains shown)
VH: EVQLQQSGAELVKPGASVKISCKASGYTFTDYNMDWVKQSHGKSLEWIGDINPNYESTSYNQKFKGKATLTVDKSSSTAYMEVRSLTSEDTAVFYCARDKGWYFDVWGAGTTVTVSS
VL: ENVLTQSPAIMSASLGEKVTMSCRASSSVKNMYWYQQKSDASPKLWIYYTSNLAPGVPARFSGSGSGNSYSLTISSMEGEDAATYYCQQFTSSPYTFGGGTKLELK
notes: Parental mouse antibody; also called mouse SBT-001
B3: SBT-003 (antibody, V domains shown)
VH: QIQLVQSGPELKKPGETVKISCKASGYTFTDYSMHWVKQAPGKGLKWMGWINTETGEPTYADDFKGRFAFSSETSTSTAYLQINNLKNDDTTTYFCATYYGSSYVPDYWGQGTSLTVSS
VL: DIVMTQSHKFMSTSVGDRVSITCKASQNVGTAVAWYQHKPGQSPKLLIYWTSSRHTGVPDRFTGSGSGTEFTLTISNVQSEDLADYFCHQYSDYPYTFGGGTKLEIK
notes: Parental mouse antibody; also called mouse SBT-003
B4: chimeric SBT-003 (antibody, V domains shown)
VH: B3 VH
VL: B3 VL
notes: also called chSBT-003

Assays:
human TNFR2 on cells [1] = biological target: T1, human TNFR2 on cells (human, UniProt P20333 23-461); test: flow cytometry on human PBMC, antibody at 10 ug/mL, anti-human Fc-PE secondary
T1 construct: whole, on cells; also called TNFR2 on Jurkat clone H6; human TNFR2 on CD4+ and CD8+ T cells
T1 sequence (looked up): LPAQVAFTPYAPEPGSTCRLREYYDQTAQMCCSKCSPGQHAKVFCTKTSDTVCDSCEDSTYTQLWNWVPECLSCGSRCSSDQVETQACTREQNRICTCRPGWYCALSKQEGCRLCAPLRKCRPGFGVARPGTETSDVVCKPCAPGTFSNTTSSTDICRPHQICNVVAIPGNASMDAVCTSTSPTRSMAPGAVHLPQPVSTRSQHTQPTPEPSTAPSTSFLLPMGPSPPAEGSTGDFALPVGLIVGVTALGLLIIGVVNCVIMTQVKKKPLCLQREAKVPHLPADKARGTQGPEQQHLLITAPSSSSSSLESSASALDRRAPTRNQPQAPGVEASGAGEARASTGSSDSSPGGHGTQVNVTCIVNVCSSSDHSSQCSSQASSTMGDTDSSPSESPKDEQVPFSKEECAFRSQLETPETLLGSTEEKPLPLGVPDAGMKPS
Experimental: The following day 0.3×10⁶ PBMC were counted and washed with PBS (Lonza). PBMCs were resuspended in Fixable Viability Stain 575V (BD) diluted 1:1,000 in PBS and incubated for 10 minutes. PBMCs were then washed twice in PBS to remove residual viability stain. PBMCs were then resuspended in Horizon Brilliant Stain Buffer (BD) with 10 uL per test of human Fc receptor binding inhibitor (eBioscience) and incubated on ice for 20 minutes to block Fc receptors. […] PBMCs were incubated 20 minutes on ice and then washed three times with 2% FBS PBS. To visualize TNFR chimeric antibody binding, PBMCs were resuspended in goat anti-human Fc-PE F(ab′)₂ secondary reagent (Jackson ImmunoResearch) diluted 1:200 in 2% FBS PBS and incubated on ice for 20 minutes. Cells were then washed three times in 2% FBS PBS and resuspended in 200 uL 2% FBS PBS for flow cytometry analysis using a BD FACS Celesta instrument and FACS Diva software. T cells were analyzed for chimeric TNFR2 binding by gating on viable cells defined as lymphocytes using forward and side scatter and as T cells by anti-CD3 staining. CD4⁺ and CD8⁺ subsets were identified by commercially available specific antibody conjugates.

soluble human TNFR2 [2] = biological target: T2, soluble human TNFR2 (human, UniProt P20333 23-257); test: competition ELISA, plate-bound soluble human TNFR2, biotinylated TNFα as competitor
T2 construct: also called soluble TNFR2
T2 sequence (looked up): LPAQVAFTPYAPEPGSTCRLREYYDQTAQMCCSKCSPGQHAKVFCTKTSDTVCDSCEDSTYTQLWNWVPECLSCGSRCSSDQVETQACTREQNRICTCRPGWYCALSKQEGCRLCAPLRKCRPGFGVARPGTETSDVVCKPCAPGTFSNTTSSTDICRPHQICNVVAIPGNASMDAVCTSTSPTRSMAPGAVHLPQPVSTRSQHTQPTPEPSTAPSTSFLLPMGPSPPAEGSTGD
Experimental: (§1) Soluble human TNFR2 (Sino Biological, 10417-H08H) or cynomolgus TNFR2 (Sino Biological, 90102-C08H) was coated on Nunc-Immuno™ plates at 0.1 μg/ml, 0.5 ug/ml, 1 μg/ml, and 5 μg/ml. […] Plates were developed using TMB and stopped with 3 M HCl.
(§2) IC₅₀ values are reported in nM.

[3] = biological target: T3, cynomolgus TNFR2 on cells (cynomolgus); test: flow cytometry on cynomolgus PBMC, antibody at 10 ug/mL, anti-human Fc-PE secondary
T3 construct: whole, on cells; also called cynomolgus TNFR2 on CD4+ and CD8+ T cells
Experimental: Cynomolgus peripheral blood mononuclear cells (PBMCs) from two independent donors were isolated by diluting whole blood (SNBL USA) 1:1 in PBS (Lonza), layering over Ficoll-Paque Plus (GE Healthcare), and centrifuging for 35 minutes at 400×g. The PBMC fraction was removed, washed 3 times in 2% FBS PBS and counted. 0.3×10⁶ PBMC were resuspended in Fixable Viability Stain 575V (BD) diluted 1:1000 in PBS and incubated for 10 minutes. PBMC were then washed twice in PBS to remove residual viability stain, resuspended in Horizon Brilliant Stain Buffer (BD) with 10 uL per test of human Fc receptor binding inhibitor (eBioscience), and incubated on ice for 20 minutes to block Fc receptors. […] PBMC were incubated 20 minutes on ice and then washed three times with 2% FBS PBS. To visualize TNFR2 chimeric antibody binding, PBMC were resuspended in goat anti-human Fc-PE F(ab′)₂ secondary reagent (Jackson ImmunoResearch) diluted 1:200 in 2% FBS PBS and incubated on ice for 20 minutes. Cells were then washed three times in 2% FBS PBS and resuspended in 200 uL 2% FBS PBS for flow cytometry analysis using a BD FACS Celesta instrument and FACS Diva software. T cells were analyzed for chimeric TNFR2 binding by gating on viable cells defined as lymphocytes using forward and side scatter and as T cells by anti-CD3 staining. CD4⁺ and CD8⁺ subsets were identified using commercial specific antibody conjugates.

soluble cynomolgus TNFR2 [4] = biological target: T4, soluble cynomolgus TNFR2 (cynomolgus, UniProt A0A2K5VET2 132-366); test: competition ELISA, plate-bound soluble cynomolgus TNFR2, biotinylated TNFα as competitor
T4 sequence: T2 sequence (looked up) with S16G, S36P, P117Q, N164H, E210A, S216G, M223V
Experimental: as §1, §2

[5] = biological target: T5, monomeric human TNFR2 extracellular domain (human, UniProt P20333 23-257); test: BLI (Octet Red 96), antibody captured on Fc biosensor, monomeric TNFR2 ECD in solution, 1:1 model
T5 construct: extracellular domain; Analyte in the Octet experiments; also called human TNFR2 ECD
T5 sequence (looked up): T2 sequence (looked up)
Experimental: (§3) Analysis of binding to the human and cynomolgus TNFR2 ECD was performed using an Octet Red 96 Instrument™ (ForteBio). […] The experiments were performed using five steps: (1) baseline acquisition (60 s); (2) antibody loading on to anti-human or anti-mouse Fc biosensors (120 s); (3) second baseline acquisition (60 s); (4) association of interacting monomeric human or cynomolgus TNFR2 ECD protein for kₒₙ measurement (120 s); and (5) dissociation of interacting monomeric human or cynomolgus TNFR2 ECD for koff measurement (240-3600 s).
(§4) The interacting monomeric human or cynomolgus ECD was used at 5-6 concentrations of a 3-fold concentration series. The data were analyzed using Octet Data Analysis Software 9.0™ (ForteBio) and fit to the 1:1 binding model. The equilibrium dissociation constants (Kd) were calculated by the ratio of […].

[6] = biological target: T6, monomeric cynomolgus TNFR2 extracellular domain (cynomolgus monkey, UniProt A0A2K5VET2 132-366); test: as above
T6 construct: extracellular domain; Analyte in the Octet experiments; also called cynomolgus TNFR2 ECD; Cyno TNFR2
T6 sequence: T2 sequence (looked up) with S16G, S36P, P117Q, N164H, E210A, S216G, M223V
Experimental: as §3, §4

soluble human TNFR2 [7] = biological target: T2, soluble human TNFR2; test: competition ELISA: plate-bound soluble human TNFR2, competitor biotinylated TNFα, streptavidin-HRP, A450
Experimental: as §1

soluble cynomolgus TNFR2 [8] = biological target: T4, soluble cynomolgus TNFR2; test: competition ELISA: plate-bound soluble cynomolgus TNFR2, competitor biotinylated TNFα, streptavidin-HRP, A450
Experimental: as §1

soluble human TNFR2 [9] = biological target: T2, soluble human TNFR2; test: competition ELISA: plate-bound soluble human TNFR2, competitor biotinylated TNFα; IC50 relative to unlabelled TNFα = 1.00
Experimental: as §1, §2

soluble cynomolgus TNFR2 [10] = biological target: T4, soluble cynomolgus TNFR2; test: competition ELISA: plate-bound soluble cynomolgus TNFR2, competitor biotinylated TNFα; IC50 relative to unlabelled TNFα = 1.00
Experimental: as §1, §2

human TNFR2 on cells [11] = biological target: T1, human TNFR2 on cells; test: cell-based or functional assay
soluble human TNFR2 [12] = biological target: T2, soluble human TNFR2; test: competition ELISA (FIG. 2), plate-bound soluble human TNFR2, constant biotinylated TNFα as competitor
Source text: (§5) Soluble human TNFR2 was coated on Nunc-Immuno™ plates. […] IC₅₀ values are reported in nM.

soluble human TNFR2 [13] = biological target: T2, soluble human TNFR2; test: competition ELISA: plate-bound soluble TNFR2, antibody titrated against constant biotinylated TNFα, streptavidin-HRP, A450
Source text: as §5, §2

[14] = biological target: T5, monomeric human TNFR2 extracellular …; test: BLI (Octet Red 96), Human TNFR2 Kd (1-1)
soluble human TNFR2 [15] = biological target: T2, soluble human TNFR2; test: competition ELISA: plate-bound soluble human TNFR2, competitor biotinylated TNFα, streptavidin-HRP, A450; remark: listed apart in the source
Experimental: as §1

soluble human TNFR2 [16] = biological target: T2, soluble human TNFR2; test: competition ELISA: plate-bound soluble human TNFR2, competitor biotinylated TNFα; IC50 relative to unlabelled TNFα = 1.00; remark: listed apart in the source
Experimental: as §1

Binder | % CD4^+ ab^+ Donor 1 (human TNFR2 on cells [1]) [%] | % CD4^+ ab^+ Donor 2 (human TNFR2 on cells [1]) [%] | % CD8^+ ab^+ Donor 1 (human TNFR2 on cells [1]) [%] | % CD8^+ ab^+ Donor 2 (human TNFR2 on cells [1]) [%] | Average Relative IC50 (soluble human TNFR2 [2]) [nM] | % CD4^+ ab^+ Donor 1 [3] [%] | % CD4^+ ab^+ Donor 2 [3] [%] | % CD8^+ ab^+ Donor 1 [3] [%] | % CD8^+ ab^+ Donor 2 [3] [%] | Kd [5] [nM] | Kd [6] [nM] | IC50 (soluble human TNFR2 [12]) [nM] | IC50 (soluble human TNFR2 [13]) [nM] | also measured
B1 | 29.3 | 18.4 | 9.1 | 11.4 | 2.93 | 8 | 5.5 | 9.2 | 11 | 2.8 | 7.9 | – | – | Average Relative IC50 (soluble cynomolgus TNFR2 [4]): 1.56; IC50 (soluble human TNFR2 [7]): 12.9 nM; IC50 (soluble cynomolgus TNFR2 [8]): 15.1 nM; Relative IC50 (soluble human TNFR2 [9]): 2.33 nM; Relative IC50 (soluble cynomolgus TNFR2 [10]): 1.57 nM
B2 | – | – | – | – | – | – | – | – | – | 2.7 | 53.1 | 9.04 | 8.27 | IC50 (µg/mL) (with pre-incubation); rescue of Jurkat H6 cells from 2 ng/mL TNFα, luminescence (human TNFR2 on cells [11]): 3.03 µg/mL; IC50 (µg/mL) (without pre-incubation); rescue of Jurkat H6 cells from 2 ng/mL TNFα, luminescence (human TNFR2 on cells [11]): 2.53 µg/mL
B3 | – | – | – | – | – | – | – | – | – | 1.2 | – | 10.5 | 8.5 | Kd [14]: 1.2 nM
B4 | 44.4 | 35 | 23.8 | 17.7 | 5.33 | 0.7 | 1.2 | 0.6 | 2.1 | 0.25 | 470 | – | – | IC50 (soluble human TNFR2 [15]): 14.4 nM; Relative IC50 (soluble human TNFR2 [16]): 5.79 nM
